The source of these data is the supplement of paper PMC9112550, “Optimization of the antimicrobial peptide Bac7 by deep mutational scanning” (BMC Biology, 2022).

This data set has as its system Escherichia coli TOP10. As to the kind of experiment: shrunken log2 fold change of peptide-encoding DNA abundance (4.5 h post-induction vs induction); higher = less antimicrobial activity (less host growth inhibition). As to conditions: time post-induction: 4.5 h; library: site-saturation at positions 5, 18, 19, 20.
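Note: peptides expressed intracellularly from a pBAD plasmid library in pooled LB shake-flask culture, induced with 0.3% L-arabinose, DNA abundance read by NGS, three biological replicates, DESeq2 with apeglm shrinkage.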

For the sequence RRIRCRPPRLPRPRPRPTEQPRP, the “shrunken log2 fold change” value is -0.304.
On to RRIRDRPPRLPRPRPRPWLFPRP, for which the “shrunken log2 fold change” value came out at 0.0977.
Then RRIRPRPPRLPRPRPRPRVTPRP, with 0.326; and RRIRPRPPRLPRPRPRPMSYPRP, with 0.296; and RRIRNRPPRLPRPRPRPDPQPRP, with 0.0854.
Then RRIRFRPPRLPRPRPRPMGCPRP, with 0.125; and RRIRWRPPRLPRPRPRPLPCPRP, with 0.118; and RRIRMRPPRLPRPRPRPLYNPRP, with -0.335.
Next, RRIRFRPPRLPRPRPRPMFAPRP: 0.0307; RRIRIRPPRLPRPRPRPKTAPRP: -0.143.
Take RRIRVRPPRLPRPRPRPGNWPRP: the “shrunken log2 fold change” value was 0.0971.
Then RRIRKRPPRLPRPRPRPGLGPRP, with 0.406.
Then RRIRTRPPRLPRPRPRPPKSPRP, with 0.556; and RRIRPRPPRLPRPRPRPCDHPRP, with -0.128.
As for RRIRARPPRLPRPRPRPVDRPRP, the “shrunken log2 fold change” value came out at 0.193.
Then RRIRYRPPRLPRPRPRPCVGPRP, with -1.87; and RRIRERPPRLPRPRPRPRDFPRP, with -0.134.
Take RRIRRRPPRLPRPRPRPKCFPRP: the “shrunken log2 fold change” value was determined as 0.445.
Next, RRIRWRPPRLPRPRPRPCGRPRP: 0.376; RRIRLRPPRLPRPRPRPNICPRP: -0.132; RRIRRRPPRLPRPRPRPNPFPRP: 0.125.
Then RRIRSRPPRLPRPRPRPPVKPRP, with -0.136; and RRIRFRPPRLPRPRPRPQRVPRP, with 0.045; and RRIRWRPPRLPRPRPRPPVTPRP, with 0.283.
Next, RRIRVRPPRLPRPRPRPVVYPRP: 0.0805; RRIRYRPPRLPRPRPRPLYAPRP: -1.49; RRIRVRPPRLPRPRPRPNCKPRP: -0.368.
For RRIRYRPPRLPRPRPRPASEPRP, the “shrunken log2 fold change” value is -0.0202.
On to RRIRSRPPRLPRPRPRPDFWPRP, for which the “shrunken log2 fold change” value was 0.506.
Then RRIRYRPPRLPRPRPRPRSGPRP, with -0.0667; and RRIRYRPPRLPRPRPRPNQKPRP, with -0.0988.
Next, RRIRFRPPRLPRPRPRPEADPRP: 0.24; RRIRNRPPRLPRPRPRPFMCPRP: -0.202.
Then RRIRRRPPRLPRPRPRPKSHPRP, with -0.172.
As to RRIRDRPPRLPRPRPRPVVHPRP, the “shrunken log2 fold change” value came out at 0.0965.
Then RRIRKRPPRLPRPRPRPCTTPRP, with -0.132.
Next, RRIRSRPPRLPRPRPRPAWKPRP: 0.186; RRIRHRPPRLPRPRPRPRTMPRP: -0.0671.
Next, RRIRWRPPRLPRPRPRPLDVPRP: 0.00856; RRIRWRPPRLPRPRPRPGKGPRP: -0.0357; RRIRFRPPRLPRPRPRPWMAPRP: -0.254.
On to RRIRVRPPRLPRPRPRPQYAPRP, for which the “shrunken log2 fold change” value is -0.193.
Take RRIRHRPPRLPRPRPRPIPHPRP: the “shrunken log2 fold change” value was -0.664.
Then RRIRIRPPRLPRPRPRPWSIPRP, with -0.211; and RRIRTRPPRLPRPRPRPIYSPRP, with -0.571.
Then RRIRHRPPRLPRPRPRPEAKPRP, with -0.0228; and RRIRCRPPRLPRPRPRPASLPRP, with -0.234; and RRIRRRPPRLPRPRPRPRQVPRP, with 0.466.
Then RRIRGRPPRLPRPRPRPIMHPRP, with 0.341.
As for RRIRLRPPRLPRPRPRPEILPRP, the “shrunken log2 fold change” value stood at 0.0325.
Then RRIRFRPPRLPRPRPRPPYPPRP, with -0.0265; and RRIRVRPPRLPRPRPRPWSAPRP, with -0.135; and RRIRHRPPRLPRPRPRPKNHPRP, with -0.566.
Next, RRIRGRPPRLPRPRPRPNEHPRP: 0.435.
As for RRIRMRPPRLPRPRPRPYTSPRP, the “shrunken log2 fold change” value was -0.265.
Then RRIRGRPPRLPRPRPRPTWKPRP, with 0.847; and RRIRPRPPRLPRPRPRPNYGPRP, with 0.111; and RRIRGRPPRLPRPRPRPWSHPRP, with -0.155.
As for RRIRDRPPRLPRPRPRPHASPRP, the “shrunken log2 fold change” value turned out to be 0.178.
Then RRIRHRPPRLPRPRPRPTKAPRP, with -0.0108; and RRIRWRPPRLPRPRPRPTGQPRP, with -0.0283; and RRIRPRPPRLPRPRPRPGTQPRP, with 0.185.
Next, RRIRCRPPRLPRPRPRPCWTPRP: -0.223.
Then RRIRKRPPRLPRPRPRPFVLPRP, with 0.389; and RRIRDRPPRLPRPRPRPDQPPRP, with -0.00151.
For RRIRLRPPRLPRPRPRPCACPRP, the “shrunken log2 fold change” value was -0.385.
Next, RRIRHRPPRLPRPRPRPKLRPRP: -0.382; RRIRWRPPRLPRPRPRPLGRPRP: 0.424.
As to RRIRARPPRLPRPRPRPARAPRP, the “shrunken log2 fold change” value came out at 0.834.
Then RRIRVRPPRLPRPRPRPQAYPRP, with -0.00917.
Next, RRIRSRPPRLPRPRPRPFDGPRP: 0.0042; RRIRFRPPRLPRPRPRPVHDPRP: 0.0232.
Then RRIRSRPPRLPRPRPRPYFIPRP, with -1.06.
Turning to RRIRARPPRLPRPRPRPNCPPRP, the “shrunken log2 fold change” value is -0.0021.
Then RRIRYRPPRLPRPRPRPMSTPRP, with -0.0213; and RRIRTRPPRLPRPRPRPGFKPRP, with -0.0634.
Next, RRIRPRPPRLPRPRPRPFITPRP: -0.678; RRIRPRPPRLPRPRPRPCNHPRP: -0.227; RRIRWRPPRLPRPRPRPYYVPRP: -0.213.
Next, RRIRERPPRLPRPRPRPYSNPRP: -0.905.
Take RRIRIRPPRLPRPRPRPPHGPRP: the “shrunken log2 fold change” value was -0.0482.
Regarding RRIRFRPPRLPRPRPRPAAAPRP, the “shrunken log2 fold change” value worked out at 0.551.
For the sequence RRIRIRPPRLPRPRPRPRLFPRP, the “shrunken log2 fold change” value is 0.0705.
Regarding RRIRTRPPRLPRPRPRPLTCPRP, the “shrunken log2 fold change” value was -0.809.
Then RRIRCRPPRLPRPRPRPQPWPRP, with 0.125; and RRIRNRPPRLPRPRPRPPIGPRP, with 0.106.
Then RRIRHRPPRLPRPRPRPHLEPRP, with -0.0228; and RRIRERPPRLPRPRPRPHPFPRP, with -0.235; and RRIRLRPPRLPRPRPRPHNRPRP, with -0.205.
Then RRIRYRPPRLPRPRPRPPKKPRP, with -0.0754; and RRIRYRPPRLPRPRPRPNDLPRP, with 0.018; and RRIRPRPPRLPRPRPRPDSGPRP, with 0.0463.
In the case of RRIRLRPPRLPRPRPRPCGVPRP, the “shrunken log2 fold change” value is -0.339.
As for RRIRGRPPRLPRPRPRPAAFPRP, the “shrunken log2 fold change” value is 0.724.
Then RRIRGRPPRLPRPRPRPYLRPRP, with -0.0169.
Next, RRIRTRPPRLPRPRPRPKHHPRP: -0.263.
Next, RRIRDRPPRLPRPRPRPKNCPRP: -0.15.
On to RRIRERPPRLPRPRPRPGVLPRP, for which the “shrunken log2 fold change” value is -0.177.
Then RRIRVRPPRLPRPRPRPEHHPRP, with -0.334.
Then RRIRPRPPRLPRPRPRPWLRPRP, with 0.421.
Next, RRIRKRPPRLPRPRPRPNSGPRP: 0.0179; RRIRPRPPRLPRPRPRPDSCPRP: 0.0412.
On to RRIRWRPPRLPRPRPRPAIFPRP, for which the “shrunken log2 fold change” value was found to be 0.327.
With RRIRLRPPRLPRPRPRPLIAPRP, the “shrunken log2 fold change” value is -0.498.
Next, RRIRGRPPRLPRPRPRPYWCPRP: -0.0844.
Then RRIRWRPPRLPRPRPRPWPGPRP, with 0.217.
Then RRIRGRPPRLPRPRPRPHTNPRP, with 0.221.
On to RRIRGRPPRLPRPRPRPCAGPRP, for which the “shrunken log2 fold change” value is 0.834.
RRIRLRPPRLPRPRPRPSQQPRP: the “shrunken log2 fold change” value was -0.0225.
In the case of RRIRARPPRLPRPRPRPHKYPRP, the “shrunken log2 fold change” value was -0.243.
Then RRIRYRPPRLPRPRPRPEFNPRP, with -0.221; and RRIRDRPPRLPRPRPRPPHFPRP, with 0.173.
Then RRIRFRPPRLPRPRPRPTLAPRP, with 0.361; and RRIRPRPPRLPRPRPRPSKLPRP, with -0.224.
Consider RRIRFRPPRLPRPRPRPRFQPRP, for which the “shrunken log2 fold change” value was found to be 0.0731.
Regarding RRIRGRPPRLPRPRPRPGRLPRP, the “shrunken log2 fold change” value was found to be 0.706.
For the sequence RRIRTRPPRLPRPRPRPGWMPRP, the “shrunken log2 fold change” value is -0.182.
Then RRIRLRPPRLPRPRPRPFMAPRP, with -0.343; and RRIRARPPRLPRPRPRPAPHPRP, with 0.814.
Then RRIRGRPPRLPRPRPRPETQPRP, with 2.49.
Then RRIRFRPPRLPRPRPRPKNWPRP, with 0.31.
Turning to RRIRGRPPRLPRPRPRPVTNPRP, the “shrunken log2 fold change” value worked out at 0.735.
Next, RRIRERPPRLPRPRPRPGMIPRP: -0.439; RRIRPRPPRLPRPRPRPEDFPRP: -0.0193; RRIRDRPPRLPRPRPRPCPSPRP: 0.114.
